Test results as given in US20120121559A1 (VALTED, published 2012).
Blank lines part the entries; values can stand above or below the binder they belong to.

Columns and labels:
[1] = molecular target: T1, PARIS (parkin interacting substrate) (human, UniProt Q6NUN9 1-644, limits assumed); test: immunoprecipitation of endogenous Iduna from MCF7 lysate, immunoblot
T1 construct: Negative control of the co-immunoprecipitation

[2] = molecular target: PARsylated PARP1 (recombinant PARP1 automodified in vitro), P09874
[3] = molecular target: recombinant PARP1, non-PARsylated, P09874
[4] = molecular target: PARsylated PARP1, endogenous protein of MCF7 cells, P09874
Sequence of PARsylated PARP1, endogenous protein of MCF7 cells, P09874 (P09874 whole entry, looked up): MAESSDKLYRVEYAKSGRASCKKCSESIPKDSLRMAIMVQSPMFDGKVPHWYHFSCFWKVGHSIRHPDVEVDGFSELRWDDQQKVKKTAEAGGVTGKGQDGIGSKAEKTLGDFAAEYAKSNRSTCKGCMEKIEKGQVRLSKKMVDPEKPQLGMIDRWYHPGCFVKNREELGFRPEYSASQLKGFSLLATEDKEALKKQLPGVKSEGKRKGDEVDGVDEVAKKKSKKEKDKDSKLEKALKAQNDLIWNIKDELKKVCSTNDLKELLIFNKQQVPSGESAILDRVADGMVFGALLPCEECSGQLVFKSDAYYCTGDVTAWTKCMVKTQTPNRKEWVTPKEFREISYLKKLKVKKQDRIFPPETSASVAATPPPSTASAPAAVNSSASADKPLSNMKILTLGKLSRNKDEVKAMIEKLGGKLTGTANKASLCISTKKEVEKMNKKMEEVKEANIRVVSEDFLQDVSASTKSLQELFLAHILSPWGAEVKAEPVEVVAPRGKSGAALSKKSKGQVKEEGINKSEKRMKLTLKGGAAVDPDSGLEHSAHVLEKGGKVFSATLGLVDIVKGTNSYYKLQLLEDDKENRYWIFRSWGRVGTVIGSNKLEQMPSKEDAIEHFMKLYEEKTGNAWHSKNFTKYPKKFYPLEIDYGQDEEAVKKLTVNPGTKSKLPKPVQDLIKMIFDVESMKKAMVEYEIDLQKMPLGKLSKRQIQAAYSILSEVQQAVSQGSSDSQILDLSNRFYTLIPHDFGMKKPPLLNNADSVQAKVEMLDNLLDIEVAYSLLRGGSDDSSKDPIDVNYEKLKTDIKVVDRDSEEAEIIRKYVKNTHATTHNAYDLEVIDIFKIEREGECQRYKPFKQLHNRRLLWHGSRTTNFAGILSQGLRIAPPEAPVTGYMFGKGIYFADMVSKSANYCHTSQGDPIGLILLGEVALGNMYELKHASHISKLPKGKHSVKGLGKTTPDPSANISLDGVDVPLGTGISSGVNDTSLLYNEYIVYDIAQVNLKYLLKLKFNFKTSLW

Sequence of recombinant PARP1, non-PARsylated, P09874 (P09874 whole entry, looked up): as above
Sequence of PARsylated PARP1 (recombinant PARP1 automodified in vitro), P09874 (P09874 whole entry, looked up): as above
T1 sequence (Q6NUN9 whole entry): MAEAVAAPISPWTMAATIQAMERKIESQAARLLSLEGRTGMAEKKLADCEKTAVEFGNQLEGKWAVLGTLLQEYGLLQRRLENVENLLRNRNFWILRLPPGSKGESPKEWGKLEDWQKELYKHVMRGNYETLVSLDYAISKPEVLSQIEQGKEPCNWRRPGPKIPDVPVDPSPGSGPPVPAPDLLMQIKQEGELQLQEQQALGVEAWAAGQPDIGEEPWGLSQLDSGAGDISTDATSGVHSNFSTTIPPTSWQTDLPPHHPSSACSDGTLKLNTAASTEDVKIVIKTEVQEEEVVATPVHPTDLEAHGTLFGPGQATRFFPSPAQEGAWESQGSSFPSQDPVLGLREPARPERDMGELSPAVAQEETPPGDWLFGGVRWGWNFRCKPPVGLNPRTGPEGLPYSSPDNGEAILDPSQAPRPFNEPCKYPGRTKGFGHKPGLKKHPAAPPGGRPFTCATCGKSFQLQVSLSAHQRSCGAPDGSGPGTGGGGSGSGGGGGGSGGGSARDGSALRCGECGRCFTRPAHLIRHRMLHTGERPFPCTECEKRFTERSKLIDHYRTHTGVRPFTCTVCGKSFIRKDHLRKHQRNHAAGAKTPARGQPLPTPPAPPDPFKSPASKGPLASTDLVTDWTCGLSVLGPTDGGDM

binding result [1]: no binding
B1: human Iduna (RNF146) (enzyme)
chain: MAGCGEIDHSINMLPTNKKANESCSNTAPSLTVPECAICLQTCVHPVSLPCKHVFCYLCVKGASWLGKRCALCRQEIPEDFLDKPTLLSPEELKAASRENGEYAWYYEGRNGWWQYDERTSRELEDAFSKGKKNTEMLIAGFLYVADLENMVQYRRNEHGRRRKVKRDIIDIPKKGVAGLRLDCDANTVNLARESSADGADSVSAQSGASVQPLVSSVRPLTSVDGQLTSPATPSPDASTSLEDSFAHLQLSGDNTAERSHRGEGEEDHESPSSGRVPAPDTSIEETESDASSDSEDVSAVVAQHSLTQQRLLVSNANQTVPDRSDRSGTDRSVAGGGTVSVSVRSRRPDGQCTVIEV
notes: also called hIduna; endogenous Iduna (MCF7 cells)

B2: GST-Iduna (protein)
chain: MEMAGCGEIDHSINMLPTNKKANESCSNTAPSLTVPECAICLQTCVHPVSLPCKHVFCYLCVKGASWLGKRCALCRQEIPEDFLDKPTLLSPEELKAASRGNGEYAWYYEGRNGWWQYDERTSRELEDAFSKGKKNTEMLIAGFLYVADLENMVQYRRNEHGRRRKIKRDIIDIPKKGVAGLRLDCDTNTVNLARESSADGADSGSAQTGASVQLAVPSSTRPLTSVDGQLTSPVTPSPDAGISLEDSFAHLQLSGDSIAERSHRGEGEEDHESPSSGRVPDTSVEETESDASSDSEDAPVVVAQHSLTQQRPLVPNGNQTVADQSDRSGTDRSVAGGGTMSVNVRSRRPDGQCTVIEV
in vitro ubiquitination assay (E1, UBCH 5c, ubiquitin), immunoblot with antibodies to ubiquitin [2]: Only PARsylated PARP1 is ubiquitinated by GST-Iduna | in vitro ubiquitination assay (E1, UBCH 5c, ubiquitin), immunoblot with antibodies to ubiquitin [3]: Only PARsylated PARP1 is ubiquitinated by GST-Iduna (non-PARsylated PARP1 is not ubiquitinated)

B3: GFP-Iduna (EGFP-tagged Iduna) (protein)
chain: MEMAGCGEIDHSINMLPTNKKANESCSNTAPSLTVPECAICLQTCVHPVSLPCKHVFCYLCVKGASWLGKRCALCRQEIPEDFLDKPTLLSPEELKAASRGNGEYAWYYEGRNGWWQYDERTSRELEDAFSKGKKNTEMLIAGFLYVADLENMVQYRRNEHGRRRKIKRDIIDIPKKGVAGLRLDCDTNTVNLARESSADGADSGSAQTGASVQLAVPSSTRPLTSVDGQLTSPVTPSPDAGISLEDSFAHLQLSGDSIAERSHRGEGEEDHESPSSGRVPDTSVEETESDASSDSEDAPVVVAQHSLTQQRPLVPNGNQTVADQSDRSGTDRSVAGGGTMSVNVRSRRPDGQCTVIEV
in vitro ubiquitination assay on anti-GFP immunoprecipitates, immunoblot with antibodies to PAR and ubiquitin [4]: only GFP-Iduna is capable of polyubiquitination of PARsylated PARP1
